Source: article doi:10.1101/839027v1
Numbering of substitutions follows the chain as printed. Numbers in names are those of the source.

B1: β-glucosidase B (BglB) (Paenibacillus polymyxa) (protein)
chain: MSENTFIFPATFMWGTSTSSYQIEGGTDEGGRTPSIWDTFCQIPGKVIGGDCGDVACDHFHHFKEDVQLMKQLGFLHYRFSVAWPRIMPAAGIINEEGLLFYEHLLDEIELAGLIPMLTLYHWDLPQWIEDEGGWTQRETIQHFKTYASVIMDRFGERINWWNTINEPYCASILGYGTGEHAPGHENWREAFTAAHHILMCHGIASNLHKEKGLTGKIGITLNMEHVDAASERPEDVAAAIRRDGFINRWFAEPLFNGKYPEDMVEWYGTYLNGLDFVQPGDMELIQQPGDFLGINYYTRSIIRSTNDASLLQVEQVHMEEPVTDMGWEIHPESFYKLLTRIEKDFSKGLPILITENGAAMRDELVNGQIEDTGRHGYIEEHLKACHRFIEEGGQLKGYFVWSFLDNFEWAWGYSKRFGIVHINYETQERTPKQSALWFKQMMAKNGF
B2: β-glucosidase B (BglB) (Paenibacillus polymyxa; M319C) (protein)
chain: B1 chain with M319C
B3: β-glucosidase B (BglB) (Paenibacillus polymyxa; T431I) (protein)
chain: B1 chain with T431I
B4: β-glucosidase B (BglB) (Paenibacillus polymyxa; K337D) (protein)
chain: B1 chain with K337D

Substrate: O=[N+]([O-])c1ccc(O[C@@H]2O[C@H](CO)[C@@H](O)[C@H](O)[C@H]2O)cc1
Assay: purified protein

Row | Protein | Km [mM] | kcat [s⁻¹]
1 | B1 | 6.5 ± 0.2 | 17.83 ± 0.167
2 | B2 | 6.0 ± 0.5 | 15 ± 0.517
3 | B3 | 5.1 ± 0.1 | 15.3 ± 0.717
4 | B4 | 4.3 ± 0.1 | 13.2 ± 0.667
